The record followed here is patent publication US20260209362A1 (VIB VZW, published 2026).

Experiment [1] concerns the target T1, biotinylated recombinant mouse IL-12Rβ2 (mouse, UniProt P97378 24-637, random biotinylated).
T1 construct: Recombinant protein produced in-house; also called mIL-12RB2; mouse IL-12RB2
T1 sequence: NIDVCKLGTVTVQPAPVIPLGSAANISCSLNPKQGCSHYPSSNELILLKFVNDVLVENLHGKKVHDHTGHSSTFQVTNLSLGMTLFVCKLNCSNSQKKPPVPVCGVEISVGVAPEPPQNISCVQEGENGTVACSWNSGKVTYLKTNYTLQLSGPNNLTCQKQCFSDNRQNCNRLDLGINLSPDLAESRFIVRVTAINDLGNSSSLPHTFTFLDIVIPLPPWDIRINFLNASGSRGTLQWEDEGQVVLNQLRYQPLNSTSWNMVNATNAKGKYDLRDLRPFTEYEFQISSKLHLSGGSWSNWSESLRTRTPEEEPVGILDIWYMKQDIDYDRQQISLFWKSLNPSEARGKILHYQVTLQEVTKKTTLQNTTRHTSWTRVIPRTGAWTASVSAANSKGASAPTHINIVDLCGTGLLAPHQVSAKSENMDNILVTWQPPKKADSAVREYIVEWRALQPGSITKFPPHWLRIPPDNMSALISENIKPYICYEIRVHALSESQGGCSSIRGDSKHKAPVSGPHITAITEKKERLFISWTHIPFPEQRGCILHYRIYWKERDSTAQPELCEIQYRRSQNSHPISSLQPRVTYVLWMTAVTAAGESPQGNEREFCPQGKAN
In words: ELISA, P.E., biotinylated antigen.

Experiment [2] addresses T2, biotinylated recombinant human IL-12Rβ2 (human, UniProt Q99665 24-622, random biotinylated).
T2 construct: Recombinant protein produced in-house; also called hIL-12RB2; human IL-12RB2
T2 sequence: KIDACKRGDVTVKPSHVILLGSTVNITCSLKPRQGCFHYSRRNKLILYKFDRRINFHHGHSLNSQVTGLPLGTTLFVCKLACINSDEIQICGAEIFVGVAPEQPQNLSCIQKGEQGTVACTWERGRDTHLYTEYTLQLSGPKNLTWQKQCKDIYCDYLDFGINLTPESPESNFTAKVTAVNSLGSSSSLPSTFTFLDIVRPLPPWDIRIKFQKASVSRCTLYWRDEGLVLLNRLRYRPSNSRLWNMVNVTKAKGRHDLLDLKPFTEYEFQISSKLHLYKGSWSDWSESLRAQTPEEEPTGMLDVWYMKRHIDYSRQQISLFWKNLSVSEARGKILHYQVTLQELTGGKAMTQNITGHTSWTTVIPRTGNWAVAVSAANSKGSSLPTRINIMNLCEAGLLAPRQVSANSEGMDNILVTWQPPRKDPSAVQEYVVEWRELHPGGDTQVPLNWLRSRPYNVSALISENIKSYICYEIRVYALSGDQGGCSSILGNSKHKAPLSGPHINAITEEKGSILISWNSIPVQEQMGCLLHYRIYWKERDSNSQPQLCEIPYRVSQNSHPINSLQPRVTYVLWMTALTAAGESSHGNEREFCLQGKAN
In words: ELISA, P.E., biotinylated antigen.

The target of experiment [3] is T1, biotinylated recombinant mouse IL-12Rβ2. In words: BLI, P.E., off-rate ranking.
In experiment [4] the target is T2, biotinylated recombinant human IL-12Rβ2. In words: BLI, P.E., off-rate ranking.
For experiment [5], the target named is biotinylated recombinant mouse IL-12Rβ2 (mouse) (UniProt P97378). In words: ELISA, P.E., biotinylated antigen.
The target of experiment [6] is T3, biotinylated recombinant mouse IL-12Rβ2 (mouse, UniProt P97378 24-637, random biotinylated).
T3 construct: Recombinant protein produced in-house, biotinylated; also called mIL-12RB2; mouse IL-12RB2
T3 sequence: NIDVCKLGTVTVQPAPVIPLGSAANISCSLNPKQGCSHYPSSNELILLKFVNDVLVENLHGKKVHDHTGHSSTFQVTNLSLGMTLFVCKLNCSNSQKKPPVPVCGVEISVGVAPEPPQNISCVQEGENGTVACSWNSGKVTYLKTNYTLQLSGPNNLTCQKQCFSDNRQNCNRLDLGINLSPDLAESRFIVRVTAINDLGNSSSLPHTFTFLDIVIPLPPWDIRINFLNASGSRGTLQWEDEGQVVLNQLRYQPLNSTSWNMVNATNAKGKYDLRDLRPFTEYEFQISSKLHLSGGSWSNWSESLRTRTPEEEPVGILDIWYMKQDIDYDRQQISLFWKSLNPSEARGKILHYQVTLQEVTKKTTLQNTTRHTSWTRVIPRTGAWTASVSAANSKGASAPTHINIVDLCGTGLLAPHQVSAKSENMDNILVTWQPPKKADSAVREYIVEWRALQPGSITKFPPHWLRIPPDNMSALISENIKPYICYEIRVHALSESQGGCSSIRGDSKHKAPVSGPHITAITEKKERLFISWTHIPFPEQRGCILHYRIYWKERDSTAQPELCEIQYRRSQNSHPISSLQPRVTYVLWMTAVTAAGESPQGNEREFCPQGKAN
In words: ELISA, periplasmic extract on biotinylated mIL-12Rβ2, signal over control wells.

Experiment [7] has as its target biotinylated recombinant human IL-12Rβ2 (human) (UniProt Q99665). In words: ELISA, periplasmic extract on biotinylated hIL-12Rβ2, signal over control wells.

B1: anti-IL-12Rβ2 VHH clone 3CRH83 (clone ID 20390) (VHH, not shown: small tags and cut ends)
VHH: QVQLQESGGGLVQAGGSLKLSCAASGNTFSINAMAWYRQAPGQELELVAAISDVGNTIYADSMKGRFTISRGNADNTVYLQMNSLKPEDTATYYCNAGTFYTSPGDSYYRGYDFWGQGTQVTVSS
notes: periplasmic extract
In the case of B1, in experiment [1], the “ELISA mIL-12RB2/control” value amounted to 14. For the same molecule, the “ELISA hIL-12RB2/control” value in experiment [2] turned out to be 8.46. In experiment [3], the Response worked out at 1.35 and the koff is 0.00722 s⁻¹. In experiment [4], the Response came out at 0.693 and the koff is 0.00528 s⁻¹.

B2: anti-IL-12Rβ2 VHH clone 3CRH17 (clone ID 20376) (VHH, not shown: small tags and cut ends)
VHH: QVQLQESGGGLVQAGGSLVLSCAASGSAALIFLMSWYRQAPGKQRELVAEVSRYGSTTYADSVEGRFTISRDNAKNIVDLQMNSLKPEDTAVYYCKADQYYGDSLRSSWGRGTQVTVSS
notes: periplasmic extract
Regarding B2, the “ELISA hIL-12RB2/control” value in experiment [2] worked out at 9.8. Further, in experiment [4], the Response amounted to 0.53 and the off-rate (koff) amounted to 0.00446 s⁻¹. Further, in experiment [5], the ELISA mIL-12RB2/control stood at 2.85.

B3: anti-IL-12Rβ2 VHH clone 3CRH67 (clone ID 20387) (VHH, not shown: small tags and cut ends)
VHH: QVQLQESGGGLVQAGGSLVLSCAASGSAALIFLMSWYRQAPGKQRELVAEVSRYGSTTYADSVEGRFTISRDNAKNIVDLQMNSLKPEDTAAYYCKADQYYGDSLRSSWGRGTQVTVSS
notes: periplasmic extract
For B3, the “ELISA hIL-12RB2/control” value in experiment [2] is 10. In experiment [4], the Response came to 0.617 and the koff amounted to 0.00495 s⁻¹. The ELISA mIL-12RB2/control in experiment [5] was determined as 2.11.

B4: anti-IL-12Rβ2 VHH clone 20450 (VHH, not shown: small tags and cut ends)
VHH: QVQLQESGGGLVQPGGSLRLSCAASGFTISNYAMSWVRQAPGKGLEWVSSIGSNIASTNYADSVKGRFTISRDNAKNTLYLQMNSLKPEDTAVYYCAKASQNHSPPGQGTQVTVSS
notes: tested as periplasmic extract; also called 2CRM61
As for B4, the “ELISA binding mIL-12RB2/control” value in experiment [6] was 18 ratio. Moreover, in experiment [7], the ELISA binding hIL-12RB2/control is 2.18.
